The labels stand for the following.
T1: His–Rad1–Rad10 (S. cerevisiae, UniProt P06777 1-1100; P06838 1-210)
T1 sequence (looked up) 1: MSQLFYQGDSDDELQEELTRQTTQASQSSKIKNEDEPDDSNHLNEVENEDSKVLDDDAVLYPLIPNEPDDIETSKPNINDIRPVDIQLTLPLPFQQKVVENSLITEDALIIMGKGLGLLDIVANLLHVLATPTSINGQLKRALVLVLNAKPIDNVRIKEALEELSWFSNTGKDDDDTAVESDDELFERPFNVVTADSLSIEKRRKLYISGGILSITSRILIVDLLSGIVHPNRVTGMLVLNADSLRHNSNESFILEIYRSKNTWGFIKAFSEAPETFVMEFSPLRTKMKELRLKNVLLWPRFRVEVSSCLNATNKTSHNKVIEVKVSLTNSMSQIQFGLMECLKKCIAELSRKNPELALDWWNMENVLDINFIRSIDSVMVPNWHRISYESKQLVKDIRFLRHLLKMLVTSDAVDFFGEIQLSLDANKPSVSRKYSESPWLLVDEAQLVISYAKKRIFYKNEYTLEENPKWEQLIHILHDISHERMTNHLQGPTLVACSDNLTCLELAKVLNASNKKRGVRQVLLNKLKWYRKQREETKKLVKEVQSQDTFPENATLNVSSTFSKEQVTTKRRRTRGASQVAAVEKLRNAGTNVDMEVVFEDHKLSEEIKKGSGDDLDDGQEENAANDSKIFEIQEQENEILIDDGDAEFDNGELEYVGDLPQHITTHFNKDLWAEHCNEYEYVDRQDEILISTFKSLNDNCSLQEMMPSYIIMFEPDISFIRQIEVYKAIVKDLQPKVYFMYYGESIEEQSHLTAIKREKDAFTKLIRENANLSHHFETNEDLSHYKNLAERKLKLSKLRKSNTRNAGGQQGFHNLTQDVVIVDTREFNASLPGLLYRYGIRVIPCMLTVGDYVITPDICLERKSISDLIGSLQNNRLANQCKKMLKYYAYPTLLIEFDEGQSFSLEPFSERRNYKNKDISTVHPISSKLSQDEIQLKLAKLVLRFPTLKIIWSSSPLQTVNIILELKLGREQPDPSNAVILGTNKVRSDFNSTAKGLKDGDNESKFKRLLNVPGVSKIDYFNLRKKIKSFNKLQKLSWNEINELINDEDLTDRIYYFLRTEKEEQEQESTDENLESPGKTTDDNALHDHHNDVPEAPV
T1 sequence (looked up) 2: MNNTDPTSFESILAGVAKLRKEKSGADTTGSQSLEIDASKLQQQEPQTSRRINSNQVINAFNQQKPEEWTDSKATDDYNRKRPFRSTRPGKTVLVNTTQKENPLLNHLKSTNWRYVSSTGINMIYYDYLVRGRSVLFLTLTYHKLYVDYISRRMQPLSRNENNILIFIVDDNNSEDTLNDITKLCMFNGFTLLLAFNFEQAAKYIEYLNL

B1: His–rad1R218A–Rad10 (complex, S. cerevisiae)
chain 1: T1 sequence (looked up) 1 with R218A
chain 2: T1 sequence (looked up) 2
B2: 6xHis–Saw1 (natural protein, S. cerevisiae, UniProt P39735 1-261, looked up)
chain: MAPSIATVKIARDMVLPLRIFVNRKQILQTNDKTSNKSNATIFEAPLLSNNSIICLKSPNTRIYLSQQDKKNLCDEIKEDLLLIVYELASPEIISSVLSKIRVGHSTDFQINVLPKLFAGADTDNAVTSHIQSVTRLAKFKYKLHYKHKWELDIFINSIKKIANLRHYLMFQTLTLNGFSLNAGPKTLLARKIEKQPQVPNLLIENGDADALDTPVEEDIKPVIEFMYKPVINLGEIIDVHVLHRPRRHKVRTQSKQPQEE

The target in assay [1] is T2, Msh2–Msh3 (S. cerevisiae, UniProt P25847 1-964; P25336 1-1018). Kind of assay: far-Western, overlay or dot blot.
Assay [2] has as its target B2. Kind of assay: co-IP.
The target in assay [3] is T1, His–Rad1–Rad10. The assay can be described thus: co-IP.
Assay [4] deals with T2, Msh2–Msh3. The assay can be described thus: co-IP.

Positions count from the first letter of the chain named.

T2 sequence (P25847 whole entry, chain 1 of 2): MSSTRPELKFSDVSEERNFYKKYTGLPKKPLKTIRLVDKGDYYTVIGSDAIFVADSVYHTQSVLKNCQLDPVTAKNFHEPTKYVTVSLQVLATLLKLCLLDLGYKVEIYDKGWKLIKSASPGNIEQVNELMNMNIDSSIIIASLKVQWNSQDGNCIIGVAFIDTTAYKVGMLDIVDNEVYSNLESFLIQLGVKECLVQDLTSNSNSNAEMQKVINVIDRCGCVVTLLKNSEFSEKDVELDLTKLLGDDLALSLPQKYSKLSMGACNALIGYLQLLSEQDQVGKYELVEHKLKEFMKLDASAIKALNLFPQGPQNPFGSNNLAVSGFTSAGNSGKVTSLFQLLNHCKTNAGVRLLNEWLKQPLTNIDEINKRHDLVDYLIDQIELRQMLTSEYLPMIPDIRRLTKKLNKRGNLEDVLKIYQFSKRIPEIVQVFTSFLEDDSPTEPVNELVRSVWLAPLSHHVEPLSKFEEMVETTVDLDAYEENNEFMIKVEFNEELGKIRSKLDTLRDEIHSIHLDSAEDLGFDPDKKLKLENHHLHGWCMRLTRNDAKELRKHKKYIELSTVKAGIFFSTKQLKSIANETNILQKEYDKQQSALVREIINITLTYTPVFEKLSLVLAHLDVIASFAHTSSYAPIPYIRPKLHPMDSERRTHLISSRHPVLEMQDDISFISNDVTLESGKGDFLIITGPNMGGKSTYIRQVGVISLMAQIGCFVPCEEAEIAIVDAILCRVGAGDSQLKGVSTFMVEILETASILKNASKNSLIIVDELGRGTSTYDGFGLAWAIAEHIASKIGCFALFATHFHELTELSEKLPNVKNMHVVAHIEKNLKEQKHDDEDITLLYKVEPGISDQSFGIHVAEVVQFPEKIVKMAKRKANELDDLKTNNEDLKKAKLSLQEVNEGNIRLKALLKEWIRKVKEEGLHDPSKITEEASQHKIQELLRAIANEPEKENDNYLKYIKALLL
T2 sequence (P25336 whole entry, chain 2 of 2): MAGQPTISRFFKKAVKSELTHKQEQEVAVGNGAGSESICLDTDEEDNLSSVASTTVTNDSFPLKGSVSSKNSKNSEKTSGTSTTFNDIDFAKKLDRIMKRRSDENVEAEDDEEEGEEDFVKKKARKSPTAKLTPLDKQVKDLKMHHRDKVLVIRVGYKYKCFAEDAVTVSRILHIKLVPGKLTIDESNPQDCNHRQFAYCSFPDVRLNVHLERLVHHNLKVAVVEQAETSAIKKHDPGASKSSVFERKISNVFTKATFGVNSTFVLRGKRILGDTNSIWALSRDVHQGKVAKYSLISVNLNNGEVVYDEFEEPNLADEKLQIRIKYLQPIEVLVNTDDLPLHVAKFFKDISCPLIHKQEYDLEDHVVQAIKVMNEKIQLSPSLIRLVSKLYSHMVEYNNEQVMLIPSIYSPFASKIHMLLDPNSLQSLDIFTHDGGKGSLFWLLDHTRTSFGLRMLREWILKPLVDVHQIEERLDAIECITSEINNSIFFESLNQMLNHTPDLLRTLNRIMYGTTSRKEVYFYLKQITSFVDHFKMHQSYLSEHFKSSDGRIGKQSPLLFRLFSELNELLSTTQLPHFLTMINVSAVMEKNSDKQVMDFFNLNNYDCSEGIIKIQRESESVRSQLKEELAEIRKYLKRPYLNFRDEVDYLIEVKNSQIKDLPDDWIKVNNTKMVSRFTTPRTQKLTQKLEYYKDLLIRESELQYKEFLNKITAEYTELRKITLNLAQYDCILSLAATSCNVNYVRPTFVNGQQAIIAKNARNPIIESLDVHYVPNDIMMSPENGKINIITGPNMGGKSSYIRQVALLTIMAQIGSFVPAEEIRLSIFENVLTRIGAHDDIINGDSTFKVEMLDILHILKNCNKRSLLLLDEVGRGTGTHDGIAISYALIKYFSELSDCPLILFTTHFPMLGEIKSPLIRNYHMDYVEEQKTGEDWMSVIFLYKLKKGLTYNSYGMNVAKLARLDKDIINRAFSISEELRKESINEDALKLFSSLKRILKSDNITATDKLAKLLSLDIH

Consider B1, for which, in assay [1], the binding result is “binds”. In addition, the “fold immunoprecipitated relative to His–Rad1–Rad10” value in assay [2] is ~3 fold.
Turning to B2, the binding result in assay [3] and in assay [4] was “binds” each time.
